Source: the nanobody polyreactivity screen of Harvey et al. (2022)

assay: yeast display, Sf9 membrane polyspecificity reagent, FACS + sequencing; frameworks hold sequencing errors
How it was run: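 Sorting gates, low and high (top ~1%), were placed on anti-HA fluorescence to track expression and on streptavidin fluorescence to track reagent binding. A clone's polyreactivity label is taken from the gate it came out of. The reagent was 10% biotinylated, detergent-solubilized Sf9 membrane, applied for 1 hour at 4 °C to galactose-induced yeast display cells.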

Sequence | polyreactivity (PSR sort gate)
QVHLVESGGGLVQAGGSLRLTCAASGFIFQWYAMGWYRQAPGKERELVAAINSSGSTNYADSVKGRFTISRDNAKNSGYLQRNILKPEDTAVYYCAAHWRYGRKFDYWGQGTQVTVSS | high polyreactivity
QFQLVESGGGLVQAGGSLRLSCAASGRIFGENARGWYSQATRKEREFVAVISISDASTYYADSVKGRFTITRDNAKNTVYLQMNSLKREDTAVDYCAADLTDFLYVASDYWGQGTQVTVSS | low polyreactivity
QVQLVESGGGLVQAGGSLRLSCAASGSTFDVYAMGWYRQAPGKERELVAAITWIGGSTYYADSVKGRFTISRDNAKNTVYLQMNSLKPEDTAVYYCARHDYGWVDYWGQGTQVTVSS | high polyreactivity
QVQLVESGGGLVQAGGSLRLSCAASGSTSYWYAMGWYRQAPGKERELVAAISSDDSTNYADSVKGRFTISRDNAKNTVYLQMNSLKPEDTAVYYFNREHYLIRYDYWGQGTQVTVSS | low polyreactivity
QVQLVESGGCLVQAGGSRRLSCDASVRIVPVYAMGWYRQAHGNERELVAAISQSGGSTYADSVKGRFTISRDNAKNTVYLQMNSLKPEDTAVYYCAARYWKWRPAYEYWGPGTQVTVSS | high polyreactivity
QVQLEESGRGLVQAGVSLRLSCAASGSTFYRYAMGWYRQAPGKERELVAANSQSGARTYYADSVKGRFTISRDNAKNTVYLQINSLKPEDTAVYYCAAYPVVNEFDYWGQGTQVTVSS | high polyreactivity
QVQLVESGGGLVQAGCSLSLSCAASGSIFGRYTMGWYRQAPGKERELVAAINLRGGSTYYADSVKGRFTISRDNAKNTVYLQMNSLKPEDTAVYYCATVGWKQSAYDYWGQGTQVTVSS | low polyreactivity
QVQLVESVGGLVQAGGSLRLSCAASGSNFPPYAMGWYRQAPGKERELVAAITSTDSTDYADSVKGRFTISRDNAKNTVYLQMNSLKPEDTAVYYCAAATGTYGRGGYYWGQGTQVTVSS | high polyreactivity
QVQLVESAGGLVQAGGSLRLSCAPSGSIFVAYAMGGYLQAPGKERELVAAISWRSGSTYYADSVKGRFTISRDNAKNTVYLQMNSLKPEDTAVYYSAAKQDQDYYWGQGTQVTVSS | low polyreactivity
QVQLVESGGGLVQAGGSLRLSCAASGSTFYYYAMGWYRQAPGKERELVAAISISDNSTYYADSVKGRFTISRDNAKNTVYLQMNSLKPEDTAVYYCAAYGWYAHDDSTYDYWGQGTQVTVSS | low polyreactivity
QVQLVESGGCIVQAGGSLRLSCAAYGRIFAKYVMGWSRKAPGKERELVAAITSSGGSTYYADSVKGRFTISRDNAKNTVYVQMNSLKSEDTAVYYGAAGPSYHSSYYSWGQVTQVTVSS | high polyreactivity
QVQLVESGGGLVQAGGSLRLSCAASGRTFRYYVMGWYRQAPGKERELVAAINRRGDNTYYADSVKGRLTISRDNAKNTVYLQMNSLKPEDTAVYYCAARREPYQYNQYYSWGQGTQVTVSS | high polyreactivity
QVQLVESGGGLVQAGGSLRVSCAASGYTFLRYAMGWYRQAPGKERELVAAISWSTGSTYYADSVKGRFTISRDNAKNTVYLQMNSLKPEDTAVYYCAAAGRHSGGRFYYWGQGTQVTVSS | high polyreactivity
QLQLVDSGGGLVQAGGRLSLSCAASGSIFYRYAMGWYIQAPGKERELVAAITSGGRTYYADSVKGRFTISRDNAKNTVYLQMNSLNPEDTAVYFCNAVYRKTSYGYWGQGTQVTVSS | high polyreactivity
QVQLVESGGGLVQAGGSLRLSCAASGRTFTLNAMGWYRQAPGKERELVAAISGDTGSTYYADSVKGRFTISRDNAKNTVFLQMNSLKPEDTAVYYCATRHAGTWYYWFERYYWGQGTQVTVSS | high polyreactivity
HVQLVESGGGLVQAGGSLRISCAASGFTFRYYAMGWYRQAAGKEMELVAAITSSGGRTYYADSVKGRFTISRDNAKNTVYLQMNSLKPEDTAVYYCNAAYGYVSRVYYLIEHDYWGHGTQVTVSS | high polyreactivity
QVQLVESGGGLVQAGGSLRLSCAASGFIFYYNAMGWYRQAPGKERELVARISSGSGTYYADSVKGRFTISRDNAKNTVYLQMNSLKPEDTAVYYCAARYPRGAMYYWGQGTQVTVSS | low polyreactivity
